Data taken from publication PMC10836093, “Ensemble-based design of tau to inhibit aggregation while preserving biological activity” (Research Square, 2024).

Target: the molecule itself
Test: ThT fluorescence aggregation assay; peptide alone, 50-800 μM in 1X PBS pH 7.4, 1 mM DTT, 25 μM ThT, 37 °C, no inducer; self-assembly into amyloid fibrils, t1/2max from fitted curves

Protein | t1/2max of ThT aggregation at 100 μM [h] | t1/2max of ThT aggregation at 800 μM [h]
Ac-KDNIKHVSGGGSVQIVYK-NH2 (also called mutant 4R fragment; source: synthetic peptide (Genscript, >95% purity), disaggregated in TFA) [P301S R2R3_(294-311) peptide] | 52 ± 14 | 7.5 ± 1
Ac-KDNIKHVPGGGSVQIVYK-NH2 (also called 4R-derived peptide; source: synthetic peptide (Genscript, >95% purity), disaggregated in TFA) [WT R2R3_(294-311) peptide] | – | 46 ± 13
